# Results: patent US20260217779A1 (Chugai, published 2026)
# Residue numbers refer to the chain shown, from its start. Names may count otherwise.
# T1: human CXCR3 (hCXCR3) on Ba/F3 transfectant cells (human, UniProt P49682 1-368)
# T1 sequence: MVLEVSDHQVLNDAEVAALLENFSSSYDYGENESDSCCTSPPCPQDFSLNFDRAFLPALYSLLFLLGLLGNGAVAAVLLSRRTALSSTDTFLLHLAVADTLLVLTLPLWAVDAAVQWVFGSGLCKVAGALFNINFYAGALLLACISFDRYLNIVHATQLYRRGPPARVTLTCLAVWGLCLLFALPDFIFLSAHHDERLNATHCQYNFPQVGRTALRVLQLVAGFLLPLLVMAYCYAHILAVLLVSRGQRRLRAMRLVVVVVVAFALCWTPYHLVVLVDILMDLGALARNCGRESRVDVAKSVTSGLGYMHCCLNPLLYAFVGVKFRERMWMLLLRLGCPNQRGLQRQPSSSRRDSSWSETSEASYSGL
# B1: hCXCL11.0016-G1T4k.one//VHn-G1T4h.one.H435R (Fc fusion)
# chain 1: FSMFKRGRCLCIGPGVKAVKVADIEKASIMYPSNNCDKIEVIITLKENKGQRCLNPKSKQARLIIKKVERKNFEPKSSDKTHTCPPCPAPELRRGPSVFLFPPKPKDTLMISRTPEVTCVVVDVSHEDPEVKFNWYVDGVEVHNAKTKPREEQYNSTYRVVSVLTVLHQDWLNGKEYKCKVSNKGLPSSIEKTISKAKGQPREPQVCTLPPSREEMTKNQVSLWCLVKGFYPSDIAVEWESNGQPENNYKTTPPVLDSDGSFFLYSKLTVDKSRWQEGNVFSCSVMHEALHNHYTQKSLSLSP
# chain 2: EPKSSDKTHTCPPCPAPELRRGPSVFLFPPKPKDTLMISRTPEVTCVVVDVSHEDPEVKFNWYVDGVEVHNAKTKPREEQYNSTYRVVSVLTVLHQDWLNGKEYKCKVSNKGLPSSIEKTISKAKGQPREPQVYTLPPSRCEMTKNQVSLSCAVKGFYPSDIAVEWESNGQPENNYKTTPPVLDSDGSFFLVSKLTVDKSRWQEGNVFSCSVMHEALHNRYTQKSLSLSP
# B2: hCXCL11.0032-G1T4k.one//VHn-G1T4h.one.H435R (Fc fusion)
# chain 1: PFPMFKRGRCLCIGPGVKAVKVADIEKASIMYPSNNCDKIEVIITLKENKGQRCLNPKSKQARLIIKKVERKNFEPKSSDKTHTCPPCPAPELRRGPSVFLFPPKPKDTLMISRTPEVTCVVVDVSHEDPEVKFNWYVDGVEVHNAKTKPREEQYNSTYRVVSVLTVLHQDWLNGKEYKCKVSNKGLPSSIEKTISKAKGQPREPQVCTLPPSREEMTKNQVSLWCLVKGFYPSDIAVEWESNGQPENNYKTTPPVLDSDGSFFLYSKLTVDKSRWQEGNVFSCSVMHEALHNHYTQKSLSLSP
# chain 2: B1 chain 2
# B3: hCXCL11.0017-G1T4k.one//VHn-G1T4h.one.H435R (Fc fusion)
# chain 1: B1 chain 1 with S2T
# chain 2: B1 chain 2
# B4: hCXCL11.0036-G1T4k.one//VHn-G1T4h.one.H435R (Fc fusion)
# chain 1: B2 chain 1 with P1T
# chain 2: B1 chain 2
# B5: hCXCL11.0021-G1T4k.one//VHn-G1T4h.one.H435R (Fc fusion)
# chain 1: B2 chain 1 with P1A
# chain 2: B1 chain 2
# B6: hCXCL11.0019-G1T4k.one//VHn-G1T4h.one.H435R (Fc fusion)
# chain 1: B1 chain 1 with S2W
# chain 2: B1 chain 2
# B7: hCXCL11.0027-G1T4k.one//VHn-G1T4h.one.H435R (Fc fusion)
# chain 1: B2 chain 1 with P1I
# chain 2: B1 chain 2
# B8: hCXCL11.0029-G1T4k.one//VHn-G1T4h.one.H435R (Fc fusion)
# chain 1: B2 chain 1 with P1L
# chain 2: B1 chain 2
# B9: hCXCL11.0026-G1T4k.one//VHn-G1T4h.one.H435R (Fc fusion)
# chain 1: B2 chain 1 with P1H
# chain 2: B1 chain 2
# B10: hCXCL11.0034-G1T4k.one//VHn-G1T4h.one.H435R (Fc fusion)
# chain 1: B2 chain 1 with P1R
# chain 2: B1 chain 2
# B11: hCXCL11.0022-G1T4k.one//VHn-G1T4h.one.H435R (Fc fusion)
# chain 1: B2 chain 1 with P1D
# chain 2: B1 chain 2
# B12: hCXCL11.0030-G1T4k.one//VHn-G1T4h.one.H435R (Fc fusion)
# chain 1: B2 chain 1 with P1M
# chain 2: B1 chain 2
# B13: hCXCL11.0031-G1T4k.one//VHn-G1T4h.one.H435R (Fc fusion)
# chain 1: B2 chain 1 with P1N
# chain 2: B1 chain 2
# B14: hCXCL11.0018-G1T4k.one//VHn-G1T4h.one.H435R (Fc fusion)
# chain 1: B1 chain 1 with S2V
# chain 2: B1 chain 2
# B15: hCXCL11.0020-G1T4k.one//VHn-G1T4h.one.H435R (Fc fusion)
# chain 1: B1 chain 1 with S2Y
# chain 2: B1 chain 2
# B16: hCXCL11.0035-G1T4k.one//VHn-G1T4h.one.H435R (Fc fusion)
# chain 1: B2 chain 1 with P1S
# chain 2: B1 chain 2
# B17: hCXCL11.0023-G1T4k.one//VHn-G1T4h.one.H435R (Fc fusion)
# chain 1: B2 chain 1 with P1E
# chain 2: B1 chain 2
# B18: hCXCL11.0028-G1T4k.one//VHn-G1T4h.one.H435R (Fc fusion)
# chain 1: B2 chain 1 with P1K
# chain 2: B1 chain 2
# B19: hCXCL11.0033-G1T4k.one//VHn-G1T4h.one.H435R (Fc fusion)
# chain 1: B2 chain 1 with P1Q
# chain 2: B1 chain 2
# B20: hCXCL11.0037-G1T4k.one//VHn-G1T4h.one.H435R (Fc fusion)
# chain 1: B2 chain 1 with P1V
# chain 2: B1 chain 2
# B21: hCXCL11.0024-G1T4k.one//VHn-G1T4h.one.H435R (Fc fusion)
# chain 1: B2 chain 1 with P1F
# chain 2: B1 chain 2
# Target: T1, human CXCR3 (hCXCR3) on Ba/F3 …
# Test: cell-based or functional assay
Activity retention rate at 33 nM [%],Activity retention rate at 100 nM [%],Activity retention rate at 300 nM [%],Luminescence value at 33 nM,Luminescence value at 100 nM,Luminescence value at 300 nM,Binder
65,75,69,4.95e+06,1.25e+07,8.57e+06,B1
33,68,105,2.5e+06,1.13e+07,1.31e+07,B2
61,74,69,4.72e+06,1.24e+07,8.54e+06,B3
140,105,53,1.07e+07,1.76e+07,6.59e+06,B4
108,93,84,8.26e+06,1.56e+07,1.04e+07,B5
4,28,93,325000,4.66e+06,1.15e+07,B6
67,100,102,5.18e+06,1.67e+07,1.27e+07,B7
53,92,108,4.07e+06,1.54e+07,1.34e+07,B8
71,77,80,5.46e+06,1.29e+07,9.92e+06,B9
19,45,77,1.49e+06,7.45e+06,9.63e+06,B10
178,89,49,1.37e+07,1.48e+07,6.06e+06,B11
114,98,86,8.75e+06,1.64e+07,1.06e+07,B12
165,90,51,1.27e+07,1.51e+07,6.39e+06,B13
24,50,81,1.85e+06,8.32e+06,1.01e+07,B14
28,62,95,2.15e+06,1.03e+07,1.18e+07,B15
161,95,42,1.23e+07,1.58e+07,5.23e+06,B16
189,98,48,1.45e+07,1.64e+07,5.98e+06,B17
26,53,90,2e+06,8.87e+06,1.11e+07,B18
199,92,28,1.53e+07,1.53e+07,3.46e+06,B19
111,111,73,8.51e+06,1.85e+07,9.07e+06,B20
32,72,105,2.47e+06,1.2e+07,1.31e+07,B21
